The values below are quoted from earlier work in paper PMC11901361.

pKd: −log10 of the molar value.

For this data set, the target named is folate receptor alpha (Homo sapiens) (UniProt P15328).
Sequence of folate receptor alpha (Homo sapiens) (P15328 25-234): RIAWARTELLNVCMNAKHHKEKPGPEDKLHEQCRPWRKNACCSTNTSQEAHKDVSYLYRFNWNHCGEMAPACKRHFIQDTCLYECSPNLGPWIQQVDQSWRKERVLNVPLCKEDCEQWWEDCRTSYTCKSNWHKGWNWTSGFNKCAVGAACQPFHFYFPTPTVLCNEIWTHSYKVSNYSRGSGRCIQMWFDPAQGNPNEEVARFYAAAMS

For farletuzumab, the pKd was 5.70.
